The values that follow come from article PMC9274624.

The target in test [1] is bovine ACE2 extracellular domain (residues 1-740) fused with the Fc domain of mouse IgG (bovine) (UniProt Q58DD0). Put plainly: SPR. (In general: Surface plasmon resonance follows binding to a sensor surface in real time, without labels.)
Test [2] addresses cat ACE2 extracellular domain (residues 1-740) fused with the Fc domain of mouse IgG (cat) (UniProt Q56H28). Put plainly: SPR.
Sequence of UniProt Q56H28 (Q56H28 18-740): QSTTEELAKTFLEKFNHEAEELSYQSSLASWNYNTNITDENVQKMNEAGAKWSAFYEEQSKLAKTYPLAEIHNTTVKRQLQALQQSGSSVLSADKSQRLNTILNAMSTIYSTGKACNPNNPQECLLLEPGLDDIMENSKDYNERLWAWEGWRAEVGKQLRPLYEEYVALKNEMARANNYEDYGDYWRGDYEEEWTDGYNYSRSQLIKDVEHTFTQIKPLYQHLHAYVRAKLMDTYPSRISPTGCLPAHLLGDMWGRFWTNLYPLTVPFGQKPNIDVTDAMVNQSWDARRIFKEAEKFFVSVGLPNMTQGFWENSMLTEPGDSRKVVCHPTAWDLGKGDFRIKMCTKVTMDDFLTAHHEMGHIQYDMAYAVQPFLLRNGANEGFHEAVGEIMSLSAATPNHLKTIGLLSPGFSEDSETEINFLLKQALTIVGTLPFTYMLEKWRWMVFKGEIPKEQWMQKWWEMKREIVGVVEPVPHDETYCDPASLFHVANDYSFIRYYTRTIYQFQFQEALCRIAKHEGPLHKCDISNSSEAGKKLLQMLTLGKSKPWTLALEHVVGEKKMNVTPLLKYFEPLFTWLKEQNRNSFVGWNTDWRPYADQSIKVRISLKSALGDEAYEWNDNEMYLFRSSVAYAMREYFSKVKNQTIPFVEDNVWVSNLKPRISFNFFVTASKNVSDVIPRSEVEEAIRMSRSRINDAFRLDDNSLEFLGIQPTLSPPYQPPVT

Sequence of UniProt Q58DD0 (Q58DD0 18-740): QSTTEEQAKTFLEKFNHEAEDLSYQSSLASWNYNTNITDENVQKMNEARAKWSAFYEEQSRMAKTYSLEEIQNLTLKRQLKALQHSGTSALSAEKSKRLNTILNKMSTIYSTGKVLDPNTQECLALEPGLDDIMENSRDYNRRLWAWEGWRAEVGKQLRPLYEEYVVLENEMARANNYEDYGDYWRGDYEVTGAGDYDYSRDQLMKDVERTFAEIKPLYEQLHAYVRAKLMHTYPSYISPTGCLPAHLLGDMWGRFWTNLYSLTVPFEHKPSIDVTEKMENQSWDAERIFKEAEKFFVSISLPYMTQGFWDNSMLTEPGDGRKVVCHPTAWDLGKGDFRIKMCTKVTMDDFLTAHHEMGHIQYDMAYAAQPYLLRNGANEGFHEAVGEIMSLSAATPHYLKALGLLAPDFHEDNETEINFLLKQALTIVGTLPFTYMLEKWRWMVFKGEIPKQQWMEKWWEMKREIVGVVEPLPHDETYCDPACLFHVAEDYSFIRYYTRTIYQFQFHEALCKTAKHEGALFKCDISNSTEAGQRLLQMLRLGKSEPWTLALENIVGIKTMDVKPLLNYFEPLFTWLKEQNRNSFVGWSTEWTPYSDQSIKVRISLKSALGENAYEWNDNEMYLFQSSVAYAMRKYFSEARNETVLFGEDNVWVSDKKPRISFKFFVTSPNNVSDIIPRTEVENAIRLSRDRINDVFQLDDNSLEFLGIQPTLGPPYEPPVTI

With “SARS-CoV-2 Delta RBD (residues 319-541) (from UniProt P0DTC2 319-541) (domain or fragment)”, the dissociation constant (Kd) (commonly the concentration at which binding is half-saturated) in test [1] was found to be 0.0713 µM; in test [2], 0.0534 µM.
